# Publication doi:10.1101/2024.10.21.619555 (bioRxiv, 2024)
# Assays:
# single-receptor tracking = target: the molecule itself; test: single-receptor tracking
# [1] = target: the molecule itself; test: single-molecule photobleaching
# recombinant RBP4 = recombinant RBP4 (UniProt P02753 19-201); test: cross-linking
# SEC = target: the molecule itself; test: SEC
# [2] = target: the molecule itself; test: single-molecule dual-color photobleaching
binder,measurement,setting,value
"quantum dot-labeled DR6, wild type (receptor, UniProt O75509 42-655, looked up, quantum dot label) QPEQKASNLIGTYRHVDRATGQVLTCDKCPAGTYVSEHCTNTSLRVCSSCPVGTFTRHENGIEKCHDCSQPCPWPMIEKLPCAALTDRECTCPPGMFQSNATCAPHTVCPVGWGVRKKGTETEDVRCKQCARGTFSDVPSSVMKCKAYTDCLSQNLVVIKPGTKETDNVCGTLPSFSSSTSPSPGTAIFPRPEHMETHEVPSSTYVPKGMNSTESNSSASVRPKVLSSIQEGTVPDNTSSARGKEDVNKTLPNLQVVNHQQGPHHRHILKLLPSMEATGGEKSSTPIKGPKRGHPRQNLHKHFDINEHLPWMIVLFLLLVLVVIVVCSIRKSSRTLKKGPRQDPSAIVEKAGLKKSMTPTQNREKWIYYCNGHGIDILKLVAAQVGSQWKDIYQFLCNASEREVAAFSNGYTADHERAYAALQHWTIRGPEASLAQLISALRQHRRNDVVEKIRGLMEDTTQLETDKLALPMSPSPLSPSPIPSPNAKLENSALLTVEPSPQDKNKGFFVDESEPLLRCDSTSSGSSALSRNGSFITKEKKDTVLRQVRLDPCDLQPIFDDMLHFLNPEELRVIEEIPQAEDKLDRLFEIIGVKSQEASQTLLDSVYSHLPDLL",fold lower turnover into the monomeric state than DR6 ΔECD,single-receptor tracking,2.1 fold
same,stoichiometry N,single-receptor tracking,2
"SNAP-DR6 (receptor, UniProt O75509 42-655, looked up, SNAP-Surface Alexa Fluor 488 label) QPEQKASNLIGTYRHVDRATGQVLTCDKCPAGTYVSEHCTNTSLRVCSSCPVGTFTRHENGIEKCHDCSQPCPWPMIEKLPCAALTDRECTCPPGMFQSNATCAPHTVCPVGWGVRKKGTETEDVRCKQCARGTFSDVPSSVMKCKAYTDCLSQNLVVIKPGTKETDNVCGTLPSFSSSTSPSPGTAIFPRPEHMETHEVPSSTYVPKGMNSTESNSSASVRPKVLSSIQEGTVPDNTSSARGKEDVNKTLPNLQVVNHQQGPHHRHILKLLPSMEATGGEKSSTPIKGPKRGHPRQNLHKHFDINEHLPWMIVLFLLLVLVVIVVCSIRKSSRTLKKGPRQDPSAIVEKAGLKKSMTPTQNREKWIYYCNGHGIDILKLVAAQVGSQWKDIYQFLCNASEREVAAFSNGYTADHERAYAALQHWTIRGPEASLAQLISALRQHRRNDVVEKIRGLMEDTTQLETDKLALPMSPSPLSPSPIPSPNAKLENSALLTVEPSPQDKNKGFFVDESEPLLRCDSTSSGSSALSRNGSFITKEKKDTVLRQVRLDPCDLQPIFDDMLHFLNPEELRVIEEIPQAEDKLDRLFEIIGVKSQEASQTLLDSVYSHLPDLL",stoichiometry N,[1],2
"recombinant DR6 ECD (domain or fragment, UniProt O75509 42-349, looked up) QPEQKASNLIGTYRHVDRATGQVLTCDKCPAGTYVSEHCTNTSLRVCSSCPVGTFTRHENGIEKCHDCSQPCPWPMIEKLPCAALTDRECTCPPGMFQSNATCAPHTVCPVGWGVRKKGTETEDVRCKQCARGTFSDVPSSVMKCKAYTDCLSQNLVVIKPGTKETDNVCGTLPSFSSSTSPSPGTAIFPRPEHMETHEVPSSTYVPKGMNSTESNSSASVRPKVLSSIQEGTVPDNTSSARGKEDVNKTLPNLQVVNHQQGPHHRHILKLLPSMEATGGEKSSTPIKGPKRGHPRQNLHKHFDINEH",stoichiometry N,recombinant RBP4,1
same,binding result,SEC,binds
"DR6 ECD-Halo (domain or fragment, UniProt O75509 42-349, looked up, Alexa Fluor 660 label) QPEQKASNLIGTYRHVDRATGQVLTCDKCPAGTYVSEHCTNTSLRVCSSCPVGTFTRHENGIEKCHDCSQPCPWPMIEKLPCAALTDRECTCPPGMFQSNATCAPHTVCPVGWGVRKKGTETEDVRCKQCARGTFSDVPSSVMKCKAYTDCLSQNLVVIKPGTKETDNVCGTLPSFSSSTSPSPGTAIFPRPEHMETHEVPSSTYVPKGMNSTESNSSASVRPKVLSSIQEGTVPDNTSSARGKEDVNKTLPNLQVVNHQQGPHHRHILKLLPSMEATGGEKSSTPIKGPKRGHPRQNLHKHFDINEH",stoichiometry N,[2],2
